Assay: soluble fraction after stress (log2 fold change); higher = more stays soluble; pooled small domains, quantitative proteomics
Conditions: stress: 50 degC
Method in brief: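 Pooled custom libraries of small protein domains were each held under stress at 50°C. The read-out, high-throughput quantitative proteomics, tracked how much of each protein stayed soluble. This is reported as a base-two log fold change used to indicate aggregation propensity. Higher values mean more protein remains in solution.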

In order of falling “soluble fraction (log2)” value:
1. HMIKVASVDGASDELAHEIREIMPLDFPVSYFDLDIKYLHKVLNDIPAVESAAIKVTVSGVLQIDISER  0.43
2. HMSFSTHHEYYIYNLAVDMRKGYDGLSGLVVNELGRQPWDGSVYVFFNTMRDKVKLLVWDTDGYVIYSKR  0.279
3. HMTEAIDVPNLVGQNYSDVKSNSSYKFNWDIINVYDSGKPEGEIIKQEPEAGSKKVKENAVITLTVN  0.278
4. HMGMNSGQADFRGISLALSVDAEAEAQRLFTALADGGQVQMPLSKTFFSPAFGMVADRFGVGWMVVTN  0.247
5. HMDYYNILGVNKAATAQDIKRAYRKLAKEHHPDHGGDATRLQQVNEAYDTLKDPQRREQYDS  0.24
6. HMDAKSRFQEWVQAETGITPTYRIIGDSGPDHAKTFIAQVLLGERVVGEGVGSSKRAAEQAAAQAALAAM  0.186
7. HMRPTVNETQIREVFRSILGREVDPEGLRHYLGQAAKGWSIDQIRADVNNSQEAHQRRAELARQAEELK  0.181
8. HMVQQAVNMAKPGKLFTGPSPTSKALRDLDAGAMLYPTGEKQGPFWKVQDELGNEGWVAMGLLQLA  0.175
9. HMDDEELDALKGIPANEYTQEQIKQISEVFHTLQKNEVKDWLNSLQLRNIELPFELRNEVFSQ  0.159
10. HMAAGLTPKQKAFADNYIKNGGNAAEAARAAGYSLKNVGANAGKLLKNPKIAAYIAEKQAELDRRNGT  0.155
11. HMGVENDGYVLPRELKKGDTVLIADLGKEATVLSPVDRNGNVEVLAGAAKTRVKLKNLRLIE  0.13
12. HMFADLNPDENYGQVYIRTNTIDNLYQTLLDNKTRIHPNGLLELKPWGQKEFSILDPDKNLLTFGES  0.0797
13. HMSASSTAPGSVTLRGAILTAWTAAGGERSKMGLPVGYEVRQADGTVTQTFEKGRISVSPTGTATI  0.0647
14. HMDIDASEVRGIISQYINEPDGRVSYILETIQKKYRYLPEEAIRIVAQELEVPLTQLFGVATFYAAFSL  0.0443
15. HMSAATGIINTDNVNIRSGPATTYDAVGRLNQGSSVEILSSRNDWYQIQANSLKGWVRNDLLNVQK  0.0404
16. HMTPVTYELTVQSGAGQRIDKYLSEQLADLTRSYLQKLLKDGGVTVNGKTVKSNYKLSENDQIFLEVPDA  0.0372
17. HMEAKKVIAVHIIGEINKPGIVELEEGARVIDAIKKAGGTTEKADLAQINLAYILKDGQKIYIPNTEDN  0.0276
18. HMQRYVVDENLKLDKKDINHIINVMRLNVNDQIKLINNGTIYDAIITKIEKNNVLYEIIKKEESK  0.0274
19. HMKYSNDFDKVSYSLGLSIASNLISSGVKTLNAEAFNDGLATVFEGRMPEINPDEANKILQNFFEGLQKE  0.0191
20. HMIFNENLKSAREKKGLSQKEVAEAIGVAKSTYSLYESGNREPNVQTIKRIADVLNVSADVLLGL  0.00744
21. HMQKPELLAPAGSLEKAKTAFKYGADAVYMGTSNLSLRSRVTVDDDELIKTIEYAHSINKKVYAALNIYAR  0.00596
22. HMQITDSGAIETIIDKIIADNPGQVTQYLSGKDKVFGFFVGQTMKASQGKANPAEVNKILQEKLK  0.00553
23. HMGDEVAVTEILVKVGDTVEADQSLLTVEGDKASMEVPAPFAGVVKAIQVQLGDKVVTGSPIMLFEV  -0.00831
24. HMRSAKLPYSEFLKLVDTDKVNDVSIVGRTISGHLDDGSKFSTYTPPNDPNIIEKLSSHNVIINSAPE  -0.0117
25. HMSDPELAIPRVVGLSGNDAQAALVKAGFSAVTVVTVKNSEVTSEQVTHVVPAEGAKAKASTPVTVVVSSS  -0.0196
26. HMALKRVAPQGEDKLSAQLDGVEFDKLIPWLGMLEHDHRIAIVNLSIDRANATGLVNARVIL  -0.0239
27. HMKELFGQRLREQRLKQNLTLEQLAEKANLSPNYVGMVERGLKEPGLATIVKLLNGLNVSADTLL  -0.036
28. HMKLRLGVNIDPVATVRNARGSAYPDPVRAAIIAQEAGADGITAHLREDRRHIVDQDITSIIKAIDIPLNF  -0.0391
29. HMAPEEIPLDRVVRLVEQGRVESIVVTGERLEVTLQNGTVYGSTKENGVGFMETLDRYQVPLEQRDFSYEV  -0.0708
30. HMVPVQLTPRELQVARLAAHGASSPEIAAELRVSRRTVDNQLGRVYAKLGIAGRAELAAALSRLPVSV  -0.0808
31. HMTQMSVLFSELEAKDAATIADKLRERNIPYELSNNGSTILIPQEVLHDTRLSLASEGLPES  -0.0936
32. HMSKNTFIGNIDDKELYVGSGRYGPFMLYDGKFTNITRYLSDESKELTDITIDDYSKIVNNARPK  -0.101
33. HMTQFSLTTEEINVLKKSYSEFTDSDKELFNKILEKYNKFKNESSNDIAFEAKILEKLQEIENFYE  -0.126
34. HMTLNQEELMGKTEAILFAGGEPVSLDRIAQVLGVRTPVIDSIVSALQEKYNTPTSGIQLMRL  -0.143
35. HMSAEVEVPDVVGRQVALAVQLIETKKLRVNVAETYDAKVPPGQVISQSPEAGMKVKEERVITIYVSR  -0.167
36. HMADLSAYAGKEGMTDSVLRPSGKVDIEGHILDAVSRGDFIEKGKRVIVIKAEGSYLVVKKRMP  -0.175
37. HMGKLQFREKLNGILELGKEKHRVLTMEDVEKYFEEDALSEEQMELVYDYLLSQKIAVTGYVKK  -0.191
38. HMENFDNIFDQRLMPSLFIIRNINQAIENNNNNKFLLNSTISMKDKHWIEIHPHHLKLIISGYQT  -0.238
39. HMGEWNSVFSVPSSVVDKHLKTASSVYVKVLLVILRNAGNRISDQQISEQLSVPVDEVQEAIRYWNAAGIF  -0.247
40. HMPDLSGEEQQIVDILAQRGNLQINTLVVETDIPVHKMNAILFELEMKGVVRVLAGGMYQLL  -0.263
41. HMEDEVYFVPSPASRFNPWIAALASRRVPYRVEYDGAERRIAVPAGYAEKAGEELAAYERINHAWPR  -0.271
42. HMKRELFVEPGMRLEHTPSKTSGPVVSFIEGVIVVIKDQLGSEHRFDPVPGFFRHEGDLVALRSPLL  -0.282
43. HMYFGDADGNKKVDAADALYLKRHLADWEDYRELPQKTNVSWMDEASPANLMILERHIAGWKDYEMLPYT  -0.293
44. HMRVEEVGYGEFLQMAEERDLAEVQVTDTEIIFSDKDTPPNYYKTGRMDDPFLVDRLYSAGIRDFGE  -0.298
45. HMISIKEAVFPFSRFPGVDTLLGPEMKSTGEVMGLADNFGHAYAKSQIASGSKLPESGTLFVSVKNSD  -0.309
46. HMDLLIFSPSLGQHVRDLKRVIDRLHQHGIPVRWQKAKLLREEIEYIGWTWKSGGLIDPTNV  -0.31
47. HMFDREKFIKLGQEFARVAFENVNKRATDRALKTAAKHYGLPSADELLARLGSSEIAARDVVAELYPNL  -0.34
48. HMSYQNKLNYLINAFGGADNFQKLLGVGPSAISNYKSRKHLPLNQAKRLSKIAPQFGFSLDPHSLQIST  -0.377
49. HMLKASEVLPYVFTDKFFIDDLNLKQDQILGFLEYIDSKLPSQKLLQVSQQFQLIDFLINESKNYKNQ  -0.382
50. HMLDDESLHFFYKKDGWEYWMKTTTENNYPIQLRKKIGDEKVQEYWNGDKEKKKIGASYFGV  -0.391
51. HMLPKTVTLIDPVSGVAKTVTWVPALTLYSARRKAGLNRVPNTATIDRGGRELTGKRGSTLQPGDVVRW  -0.425
52. HMDAIDQDGNHMTFKRWGEQLQEAFQALEAYDTDKAKTILNELIKFPIDSDLNNALKGILSNIDEMMA  -0.447
53. HMGDSEMPVSEVVRLAKLDQISSIEISGTKLTIITNNLETYTSRIEENSTIIEILQRAGVDIGGLEIYPHG  -0.492
54. HMKKILIVTNRSAGMVVYTIPEEGIRREFTPGETKKIPFEELEKLAYLSGGRTLMENFLKIVDTETTEELG  -0.543
55. HMNELPSVIIMKNGRTRPYELQEISKDEEWLNQTIREHGIEPKDIFIAEFWDGRTAFILNDGRIVK  -0.555
56. HMTMEQAEFLSRQFNLLSQRLNDPSIEWQDIADLRSEYTGEDEHRDTIRKGAKLFYEYLEAGWIKN  -0.581
57. HMDHKSQLQEWAQSTLGETPRYVTIAETGPDHDKELTVELIIGRKSYSIAKGKSKKQAEQSAARIALGLLM  -0.653
58. HMVVPELNLAQQDVLRALRQRGRATADHLSVDTHRPVSEVMGILLGLEIAEVLYRVEGGWFVPKTAR  -0.653
59. HMRSWRDQRVDDLLAAVSELGMTMSRAAAGDLLDQRVEYVANQMRVTPATARKYLTEETLAGMAREIVFG  -0.693
60. HMLPTLSLSVKIYKGEGDIALDLEEMVKAFDQLNFGSYPFSEKGVHGTNIVIRGNDKKHMEEAEDKVRSLT  -0.725
61. HMSSEPYISLPRGAAHDAYPLSTKAVAAQLGMSEVWLANLRSKGKGPRYVRVGTRVFYSPEDVAQWRRAT  -0.889
62. HMENINIRNMGIRAVEAAIISLSPDQRTFTWGATNKKLVTVPYEENPYSALAAFFKTDDGIEIYDAIEKRL  -0.892
63. HMDIMNNILINRIKKILTEQNMSKADLSRLTGISNSSLSEYLNGKYEPKQDKIALIAKALHVSPAWLMGF  -0.915
64. HMTSVMAWRLITPIPQHGIIRSSQVQLQKHAPNSLKFLDVDSSPVGKQVKHGIAAGHWLSKDDFTE  -0.937
65. HMNQYRKLDGDVQNQIIYILSEYPKLPATIVYQRLLDTNTIVKKDVSLSTVNRFVQKYKDSKGIT  -1.05
66. HMEEPLIISIDSNGAVYLEVDSFKDQSIEMSSLREIIEKIILANPDIQVVVRGDSEVKYEKVMDLMSILQS  -1.29
67. HMRQQLAEILQKAVDNLPEAQRLVWLLRDKSDMTFKEIAEDLQLTEANVRVLLHRARLKLLAVINQYEE  -1.38
68. HMLEKDIGKAITILRKSYQLSISAFSMRTGYSRVHISEVESGKRKATDELISVIRNVFHLDSNWPF  -1.47
69. HMLAIELDDKPGSLLRALEIFAKRNLNIEYMYAFTEKRGDKAVMIFKFSDIETAKKSLLEEGFN  -1.64
70. HMQFSAVVLDMETRRQVAGVAVYINPKGVVKTDMRGRFVIDGAFNSVTLVRQGYESLTLERSEMTDSIWM  -1.65
71. HMVDLDIENYELEDILNLFRLQYNFVEADLKRAYRMALKLHPDKSGLDGEYFRFYMKAYKIVENIFNFRNR  -1.78
72. HMSEISAEAGKRIRYFRKSRSMTLEELAAVIHKSKATLSKYETGEISIDLDTLYDLAVALQVRAEQLLPAS  -2.29
73. HMTSRLLTPRQRYVFDTAMKEGFYDVPRRITLTELASVLDVAKSTLSAQLHRIESTVHHAYADDIRRRS  -2.35
74. HMAFKEQLKAARLAKGYTQEQLATAIGVAKSTFTGYEKGNSEPNMLTIKKLMEILEVDANYLWY  -2.49
75. HMDSERTALLSSDRTSFTAREAALLIGVSQRDIYRMIEDELLDSFTVGKMIRIRRSALEWWLS  -2.92

From the domain aggregation screens of Martell et al. (2025)
